Data: patent publication US20110318339A1

What was measured:
[1] = target: recombinant mouse DLL4 (Cat# 1389-D4-050/CF, R&D Systems) (mouse) (UniProt Q9JI71); assay: ELISA, mDLL4 coated 0.5 ng/ul, Fab […]
[2] = target: recombinant mouse DLL4 (Cat# 1389-D4-050/CF, R&D Systems) (mouse) (UniProt Q9JI71); assay: ELISA, mDLL4 coated 0.5 ng/ul, Fab 0.78 nM
[3] = target: recombinant mouse DLL4 (Cat# 1389-D4-050/CF, R&D Systems) (mouse) (UniProt Q9JI71); assay: ELISA, mDLL4 coated 0.5 ng/ul, Fab 6.25 nM
[4] = target: recombinant mouse DLL4 (Cat# 1389-D4-050/CF, R&D Systems) (mouse) (UniProt Q9JI71); assay: ELISA, mDLL4 coated 0.5 ng/ul, Fab 12.50 nM
[5] = target: recombinant mouse DLL4 (Cat# 1389-D4-050/CF, R&D Systems) (mouse) (UniProt Q9JI71); assay: ELISA, mDLL4 coated 0.5 ng/ul, Fab 25.00 nM
[6] = target: recombinant mouse DLL4 (Cat# 1389-D4-050/CF, R&D Systems) (mouse) (UniProt Q9JI71); assay: ELISA, mDLL4 coated 0.5 ng/ul, Fab 50.00 nM
[7] = target: recombinant mouse DLL4 (Cat# 1389-D4-050/CF, R&D Systems) (mouse) (UniProt Q9JI71); assay: ELISA, mDLL4 coated 0.5 ng/ul, Fab 100.00 nM
[8] = target: recombinant human DLL4 (Cat# 1506-D4/CF, R&D Systems) (human) (UniProt Q9NR61); assay: ELISA, DLL4 coated, Fab […]
[9] = target: recombinant human DLL4 (Cat# 1506-D4/CF, R&D Systems) (human) (UniProt Q9NR61); assay: ELISA, DLL4 coated, Fab 20 nM
[10] = target: recombinant human DLL4 (Cat# 1506-D4/CF, R&D Systems) (human) (UniProt Q9NR61); assay: ELISA, DLL4 coated, Fab 0.74 nM
[11] = target: recombinant human DLL4 (Cat# 1506-D4/CF, R&D Systems) (human) (UniProt Q9NR61); assay: ELISA, DLL4 coated, Fab 2.22 nM
[12] = target: recombinant human DLL4 (Cat# 1506-D4/CF, R&D Systems) (human) (UniProt Q9NR61); assay: ELISA, DLL4 coated, Fab 25 nM
[13] = target: recombinant human DLL4 (Cat# 1506-D4/CF, R&D Systems) (human) (UniProt Q9NR61); assay: ELISA, DLL4 coated, Fab 50 nM
[14] = target: recombinant human DLL4 (Cat# 1506-D4/CF, R&D Systems) (human) (UniProt Q9NR61); assay: ELISA, DLL4 coated, Fab 100 nM
[15] = target: recombinant human DLL4 (Cat# 1506-D4/CF, R&D Systems) (human) (UniProt Q9NR61); assay: ELISA, DLL4 coated, Fab 12.5 nM

Sequence of recombinant mouse DLL4 (Cat# 1389-D4-050/CF, R&D Systems) (mouse) (Q9JI71 28-525 limits assumed): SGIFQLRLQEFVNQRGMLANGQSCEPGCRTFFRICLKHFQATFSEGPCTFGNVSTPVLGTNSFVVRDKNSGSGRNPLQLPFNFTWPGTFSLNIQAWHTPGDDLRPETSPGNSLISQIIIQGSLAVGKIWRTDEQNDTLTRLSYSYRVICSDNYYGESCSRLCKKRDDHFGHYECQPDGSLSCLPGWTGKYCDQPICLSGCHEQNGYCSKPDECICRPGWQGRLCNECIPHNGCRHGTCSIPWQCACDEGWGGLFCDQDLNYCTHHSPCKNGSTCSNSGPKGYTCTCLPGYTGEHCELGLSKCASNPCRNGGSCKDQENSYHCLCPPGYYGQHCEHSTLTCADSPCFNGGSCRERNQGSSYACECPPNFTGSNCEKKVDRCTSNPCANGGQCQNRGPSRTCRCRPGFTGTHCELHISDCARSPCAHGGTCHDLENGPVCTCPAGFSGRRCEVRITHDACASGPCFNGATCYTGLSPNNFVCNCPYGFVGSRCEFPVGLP

Binder	ELISA absorbance at 450 nm [8]	ELISA absorbance at 450 nm [9]	ELISA absorbance at 450 nm [10]	ELISA absorbance at 450 nm [11]	ELISA absorbance at 450 nm [12]	ELISA absorbance at 450 nm [13]	ELISA absorbance at 450 nm [14]	ELISA absorbance at 450 nm [15]	also measured
Fab VH5-51_IGHD5-18*01>3_IGHJ4*01 G100K/G104T G24T/S28R/G35V (H:KT TRV) & V3-4_IGLJ1*01 M94R/S96M (L:RM) (Fab, V domains shown) VH: EVQLVQSGAEVKKPGESLKISCKTSGYRFTSYWIVWVRQMPGKGLEWMGIIYPGDSDTRYSPSFQGQVTISADKSISTAYLQWSSLKASDTAMYYCARRKYSYTYDYFDYWGQGTLVTVSS VL: QTVVTQEPSFSVSPGGTVTLTCGLSSGSVSTSYYPSWYQQTPGQAPRTLIYSTNTRSSGVPDRFSGSILGNKAALTITGAQADDESDYYCVLYRGMGISYVFGTGTKVTVL	–	–	–	–	–	–	–	–	ELISA absorbance at 450 nm [1]: 0.131 A450; ELISA absorbance at 450 nm [2]: 0.13 A450; ELISA absorbance at 450 nm [3]: 0.148 A450; ELISA absorbance at 450 nm [4]: 0.186 A450; ELISA absorbance at 450 nm [5]: 0.232 A450; ELISA absorbance at 450 nm [6]: 0.331 A450; ELISA absorbance at 450 nm [7]: 0.457 A450
Fab VH5-51_IGHD5-18*01>3_IGHJ4*01 G100K/G104T S28R & V3-4_IGLJ1*01 M94R/S96M (Fab, V domains shown) VH: EVQLVQSGAEVKKPGESLKISCKGSGYRFTSYWIGWVRQMPGKGLEWMGIIYPGDSDTRYSPSFQGQVTISADKSISTAYLQWSSLKASDTAMYYCARRKYSYTYDYFDYWGQGTLVTVSS VL: QTVVTQEPSFSVSPGGTVTLTCGLSSGSVSTSYYPSWYQQTPGQAPRTLIYSTNTRSSGVPDRFSGSILGNKAALTITGAQADDESDYYCVLYRGMGISYVFGTGTKVTVL	0.001 A450	0.011 A450	0 A450	0.003 A450	–	–	–	–	–
Fab VH5-51_IGHD5-18*01>3_IGHJ4*01 G100K & V3-4_IGLJ1*01 (Fab, V domains shown) VH: EVQLVQSGAEVKKPGESLKISCKGSGYSFTSYWIGWVRQMPGKGLEWMGIIYPGDSDTRYSPSFQGQVTISADKSISTAYLQWSSLKASDTAMYYCARRKYSYGYDYFDYWGQGTLVTVSS VL: QTVVTQEPSFSVSPGGTVTLTCGLSSGSVSTSYYPSWYQQTPGQAPRTLIYSTNTRSSGVPDRFSGSILGNKAALTITGAQADDESDYYCVLYMGSGISYVFGTGTKVTVL	–	–	–	–	0.18 A450	0.19 A450	0.2 A450	0.19 A450	–
Fab VH5-51_IGHD5-18*01>3_IGHJ4*01 G100K/G104T G24A/S28R/G35V & V3-4_IGLJ1*01 M94R/S96M (Fab, V domains shown) VH: EVQLVQSGAEVKKPGESLKISCKASGYRFTSYWIVWVRQMPGKGLEWMGIIYPGDSDTRYSPSFQGQVTISADKSISTAYLQWSSLKASDTAMYYCARRKYSYTYDYFDYWGQGTLVTVSS VL: QTVVTQEPSFSVSPGGTVTLTCGLSSGSVSTSYYPSWYQQTPGQAPRTLIYSTNTRSSGVPDRFSGSILGNKAALTITGAQADDESDYYCVLYRGMGISYVFGTGTKVTVL	0.034 A450	0.006 A450	0 A450	0 A450	–	–	–	–	–
Fab VH5-51_IGHD5-18*01>3_IGHJ4*01 G100K/G104T G24T/S28R/G35V D109Q & V3-4_IGLJ1*01 (Fab, V domains shown) VH: EVQLVQSGAEVKKPGESLKISCKTSGYRFTSYWIVWVRQMPGKGLEWMGIIYPGDSDTRYSPSFQGQVTISADKSISTAYLQWSSLKASDTAMYYCARRKYSYTYDYFQYWGQGTLVTVSS VL: QTVVTQEPSFSVSPGGTVTLTCGLSSGSVSTSYYPSWYQQTPGQAPRTLIYSTNTRSSGVPDRFSGSILGNKAALTITGAQADDESDYYCVLYMGSGISYVFGTGTKVTVL	–	–	–	–	0.22 A450	0.25 A450	0.3 A450	0.24 A450	–
Fab VH5-51_IGHD5-18*01>3_IGHJ4*01 G100K/G104T G24L/S28R/G35V & V3-4_IGLJ1*01 M94R/S96M (Fab, V domains shown) VH: EVQLVQSGAEVKKPGESLKISCKLSGYRFTSYWIVWVRQMPGKGLEWMGIIYPGDSDTRYSPSFQGQVTISADKSISTAYLQWSSLKASDTAMYYCARRKYSYTYDYFDYWGQGTLVTVSS VL: QTVVTQEPSFSVSPGGTVTLTCGLSSGSVSTSYYPSWYQQTPGQAPRTLIYSTNTRSSGVPDRFSGSILGNKAALTITGAQADDESDYYCVLYRGMGISYVFGTGTKVTVL	0 A450	0.003 A450	0 A450	0 A450	–	–	–	–	–
Fab VH5-51_IGHD5-18*01>3_IGHJ4*01 G104T & V3-4_IGLJ1*01 (Fab, V domains shown) VH: EVQLVQSGAEVKKPGESLKISCKGSGYSFTSYWIGWVRQMPGKGLEWMGIIYPGDSDTRYSPSFQGQVTISADKSISTAYLQWSSLKASDTAMYYCARRGYSYTYDYFDYWGQGTLVTVSS VL: QTVVTQEPSFSVSPGGTVTLTCGLSSGSVSTSYYPSWYQQTPGQAPRTLIYSTNTRSSGVPDRFSGSILGNKAALTITGAQADDESDYYCVLYMGSGISYVFGTGTKVTVL	–	–	–	–	0.18 A450	0.17 A450	0.17 A450	0.19 A450	–
Fab VH5-51_IGHD5-18*01>3_IGHJ4*01 G100K/G104T G24T/S28R/G35V Y107F & V3-4_IGLJ1*01 (Fab, V domains shown) VH: EVQLVQSGAEVKKPGESLKISCKTSGYRFTSYWIVWVRQMPGKGLEWMGIIYPGDSDTRYSPSFQGQVTISADKSISTAYLQWSSLKASDTAMYYCARRKYSYTYDFFDYWGQGTLVTVSS VL: QTVVTQEPSFSVSPGGTVTLTCGLSSGSVSTSYYPSWYQQTPGQAPRTLIYSTNTRSSGVPDRFSGSILGNKAALTITGAQADDESDYYCVLYMGSGISYVFGTGTKVTVL	–	–	–	–	0.2 A450	0.24 A450	0.28 A450	0.21 A450	–
Fab VH5-51_IGHD5-18*01>3_IGHJ4*01 G100K/G104T G24T/S28R/G35V Y105N & V3-4_IGLJ1*01 (Fab, V domains shown) VH: EVQLVQSGAEVKKPGESLKISCKTSGYRFTSYWIVWVRQMPGKGLEWMGIIYPGDSDTRYSPSFQGQVTISADKSISTAYLQWSSLKASDTAMYYCARRKYSYTNDYFDYWGQGTLVTVSS VL: QTVVTQEPSFSVSPGGTVTLTCGLSSGSVSTSYYPSWYQQTPGQAPRTLIYSTNTRSSGVPDRFSGSILGNKAALTITGAQADDESDYYCVLYMGSGISYVFGTGTKVTVL	–	–	–	–	0.19 A450	0.18 A450	0.25 A450	0.21 A450	–
Fab VH5-51_IGHD5-18*01>3_IGHJ4*01 G100K/G104T G24T/S28R/G35V Y105H & V3-4_IGLJ1*01 (Fab, V domains shown) VH: EVQLVQSGAEVKKPGESLKISCKTSGYRFTSYWIVWVRQMPGKGLEWMGIIYPGDSDTRYSPSFQGQVTISADKSISTAYLQWSSLKASDTAMYYCARRKYSYTHDYFDYWGQGTLVTVSS VL: QTVVTQEPSFSVSPGGTVTLTCGLSSGSVSTSYYPSWYQQTPGQAPRTLIYSTNTRSSGVPDRFSGSILGNKAALTITGAQADDESDYYCVLYMGSGISYVFGTGTKVTVL	–	–	–	–	0.19 A450	0.2 A450	0.23 A450	0.21 A450	–
